Consider nine molecules from patent US20130058934A1 (Novartis, published 2013).

For one assay, the target named is T1, mouse LRP6 (mouse, UniProt O88572 20-1613).
T1 construct: whole, on cells; also called murine LRP6; endogenous LRP6 on NIH 3T3 cells
Nature of the assay: FACS on NIH 3T3 cells, endogenous mouse LRP6. Here is the method: (§1) Cross-species reactivity to murine and cynomologus LRP6 was determined on cells by FACS analysis. FACS staining was performed essentially as described above. Human U266 cells (no expression of LRP6) were used as a negative control.
(§2) To show cross-reactivity, cells expressing endogenous LRP6 of human (HEK293T/17) and mouse origin (NIH 3T3), or transiently transfected HEK293/T17 cells expressing cynomolgus LRP6, were treated and subjected to flow cytometry as described above.

Assay [1] addresses T2, human LRP6 (human, UniProt O75581 20-1613).
T2 construct: whole, on cells; Endogenous LRP6 on human cells (PA1, HEK293T/17); also called endogenous LRP6 on PA1 cells and HEK293T/17 cells
Put plainly: FACS on HEK293T/17 cells, endogenous human LRP6. How it is done:
as §1, §2

The target of assay [2] is T2, human LRP6. Nature of the assay: cell-based or functional assay.
The target of assay [3] is T3, LRP6-Fc (R&D Systems, catalog No: 1505-LR) (human, UniProt O75581 20-1370).
T3 construct: Purchased reagent; also called LRP6 protein; 360 KD homodimer antigen LRP6-Fc; not shown: Fc part of the purchased fusion
T3 sequence (looked up): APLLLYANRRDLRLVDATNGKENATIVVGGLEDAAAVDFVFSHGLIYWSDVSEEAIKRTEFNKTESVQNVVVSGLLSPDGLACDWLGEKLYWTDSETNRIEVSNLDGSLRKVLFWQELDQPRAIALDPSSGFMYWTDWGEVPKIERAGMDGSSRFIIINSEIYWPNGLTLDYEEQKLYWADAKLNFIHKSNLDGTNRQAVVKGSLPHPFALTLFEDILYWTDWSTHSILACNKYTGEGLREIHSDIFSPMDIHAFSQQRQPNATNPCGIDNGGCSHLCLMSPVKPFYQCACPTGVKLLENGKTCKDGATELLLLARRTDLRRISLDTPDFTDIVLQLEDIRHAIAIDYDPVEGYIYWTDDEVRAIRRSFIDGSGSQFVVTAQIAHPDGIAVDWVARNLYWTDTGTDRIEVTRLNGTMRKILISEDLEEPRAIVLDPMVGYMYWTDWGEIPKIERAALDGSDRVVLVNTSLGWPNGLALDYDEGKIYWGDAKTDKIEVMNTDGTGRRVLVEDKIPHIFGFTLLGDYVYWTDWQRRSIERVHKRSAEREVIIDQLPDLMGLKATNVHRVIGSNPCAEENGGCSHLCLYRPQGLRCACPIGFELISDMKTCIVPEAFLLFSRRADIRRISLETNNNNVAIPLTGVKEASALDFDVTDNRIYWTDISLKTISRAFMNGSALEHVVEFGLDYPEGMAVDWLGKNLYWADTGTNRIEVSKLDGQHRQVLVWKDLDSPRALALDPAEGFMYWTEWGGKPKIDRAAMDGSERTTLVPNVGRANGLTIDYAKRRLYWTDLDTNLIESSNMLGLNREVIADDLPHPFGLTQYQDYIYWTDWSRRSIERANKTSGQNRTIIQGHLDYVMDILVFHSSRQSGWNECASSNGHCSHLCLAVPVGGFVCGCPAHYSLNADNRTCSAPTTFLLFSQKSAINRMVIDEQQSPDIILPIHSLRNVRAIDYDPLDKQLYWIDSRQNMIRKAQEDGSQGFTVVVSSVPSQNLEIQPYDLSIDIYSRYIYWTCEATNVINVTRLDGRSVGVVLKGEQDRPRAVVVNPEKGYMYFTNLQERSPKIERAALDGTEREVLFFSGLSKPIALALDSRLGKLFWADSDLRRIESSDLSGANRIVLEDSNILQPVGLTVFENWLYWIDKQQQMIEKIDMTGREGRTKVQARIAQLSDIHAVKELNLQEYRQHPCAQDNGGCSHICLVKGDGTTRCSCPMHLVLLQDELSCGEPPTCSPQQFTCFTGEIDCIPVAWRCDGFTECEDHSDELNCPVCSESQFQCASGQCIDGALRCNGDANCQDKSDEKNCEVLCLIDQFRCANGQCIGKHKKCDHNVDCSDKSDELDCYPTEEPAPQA
Put plainly: ELISA on coated LRP6-Fc, detection with pentaHis-HRP. How it is done: Binding EC₅₀ of scFvs against LRP6 protein was measured by ELISA. Maxisorp plate was coated with LRP6-Fc (R&D Systems, catalog No: 1505-LR) at 3 μg/ml at 4° C. overnight. The plate was blocked with 50 μl of 2% BSA for one hour, and washed five times with the wash solution. The samples were diluted with 1% BSA accordingly. The plate was incubated at RT for 1 h, and washed for 3 times. Detection was done by adding 50 μl pentaHis-HRP (Qiagen Mat. No. 1014992) at 1:2000 dilution in 1% BSA, incubated at RT for 1 h, and washed 3 times. 50 μl of substrate reagent A plus B (R&D systems) was added, then incubated for 5-20 min depending on the color. The reaction was stopped by adding 25 μl of the stop solution, followed by plate reading at 450 nm.
Affinity analysis ELISA EC₅₀ was carried out for both scFv08168 and scFv06475 wild type and variants.
Background: An ELISA detects its analyte on a solid surface through an enzyme-linked reagent.

T1 sequence (O88572 20-1613): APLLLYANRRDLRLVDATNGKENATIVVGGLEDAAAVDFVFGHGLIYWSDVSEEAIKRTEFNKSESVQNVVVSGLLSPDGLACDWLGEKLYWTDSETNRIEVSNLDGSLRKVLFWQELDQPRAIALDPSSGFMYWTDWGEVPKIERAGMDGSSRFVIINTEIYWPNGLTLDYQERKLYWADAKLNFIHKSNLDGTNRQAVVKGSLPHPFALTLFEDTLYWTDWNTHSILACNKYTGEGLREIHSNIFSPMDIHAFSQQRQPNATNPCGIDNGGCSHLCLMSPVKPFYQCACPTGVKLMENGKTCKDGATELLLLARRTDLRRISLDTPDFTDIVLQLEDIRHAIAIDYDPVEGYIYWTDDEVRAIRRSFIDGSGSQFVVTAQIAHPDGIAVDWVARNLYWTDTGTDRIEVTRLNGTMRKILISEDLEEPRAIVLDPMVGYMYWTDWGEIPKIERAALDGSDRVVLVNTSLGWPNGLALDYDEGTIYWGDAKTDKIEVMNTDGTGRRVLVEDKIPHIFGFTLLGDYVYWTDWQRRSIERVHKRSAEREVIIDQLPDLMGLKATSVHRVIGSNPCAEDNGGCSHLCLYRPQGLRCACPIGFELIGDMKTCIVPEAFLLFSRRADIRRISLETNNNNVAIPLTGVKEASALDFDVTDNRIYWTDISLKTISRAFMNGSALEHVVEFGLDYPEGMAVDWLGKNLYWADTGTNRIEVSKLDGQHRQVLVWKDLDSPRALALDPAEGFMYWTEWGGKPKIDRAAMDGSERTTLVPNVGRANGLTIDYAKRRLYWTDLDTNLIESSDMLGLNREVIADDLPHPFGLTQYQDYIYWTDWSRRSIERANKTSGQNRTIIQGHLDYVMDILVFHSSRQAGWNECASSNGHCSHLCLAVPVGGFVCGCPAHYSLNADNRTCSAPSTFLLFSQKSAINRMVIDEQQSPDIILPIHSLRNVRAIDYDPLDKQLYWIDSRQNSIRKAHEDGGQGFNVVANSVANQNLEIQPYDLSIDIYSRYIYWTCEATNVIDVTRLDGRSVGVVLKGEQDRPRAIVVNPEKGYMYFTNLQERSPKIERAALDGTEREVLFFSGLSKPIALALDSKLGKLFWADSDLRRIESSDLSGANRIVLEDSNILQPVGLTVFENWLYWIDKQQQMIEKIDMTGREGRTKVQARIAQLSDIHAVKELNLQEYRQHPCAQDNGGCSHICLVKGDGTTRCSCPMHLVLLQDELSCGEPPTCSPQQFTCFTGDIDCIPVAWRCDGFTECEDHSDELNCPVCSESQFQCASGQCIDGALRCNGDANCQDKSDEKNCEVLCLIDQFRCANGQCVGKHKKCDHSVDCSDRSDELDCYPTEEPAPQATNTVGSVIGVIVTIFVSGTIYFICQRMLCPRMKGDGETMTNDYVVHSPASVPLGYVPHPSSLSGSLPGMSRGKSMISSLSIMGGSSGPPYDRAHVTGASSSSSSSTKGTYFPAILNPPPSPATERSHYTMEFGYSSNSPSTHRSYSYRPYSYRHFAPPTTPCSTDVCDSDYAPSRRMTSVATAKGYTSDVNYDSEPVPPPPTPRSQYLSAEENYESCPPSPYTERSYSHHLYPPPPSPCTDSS

B1: MOR08473 Fab (Fab, V domains shown)
VH: QVQLVESGGGLVQPGGSLRLSCAASGFTFSSYGMSWVRQAPGKGLEWVSNISNDGHYTYYADSVKGRFTISRDNSKNTLYLQMNSLRAEDTAVYYCARFQASYLDIMDYWGQGTLVTVSS
VL: DIELTQPPSVSVAPGQSITISCSGDNIGSKYVHWYQQKPGQAPVLVIYNDSNRPSGIPERFSGSNSGNTATLTISGTQAEDEADYYCQAWGDNGTRVFGGGTKLTVLG
notes: also called Propeller 3 anti-LRP6 Fab MOR08473
The EC50 is the concentration needed to bring the measured effect to its halfway point. Read a low EC50 as an effect from little substance. For B1, the EC50 in the assay with mouse LRP6 stood at 0.46 nM; in the assay with human LRP6 [1], 0.74 nM.

B2: MOR06706 Fab (Fab, V domains shown)
VH: QVQLVESGGGLVQPGGSLRLSCAASGFTFSDYAIHWVRQAPGKGLEWVSGISYSGSSTHYADSVKGRFTISRDNSKNTLYLQMNSLRAEDTAVYYCARGSHGNIMAKRYFDFWGQGTLVTVSS
VL: DIELTQPPSVSVAPGQTARISCSGDNIRKKYVYWYQQKPGQAPVLVIYEDSKRPSGIPERFSGSNSGNTATLTISGTQAEDEADYYCSTADSGINNGVFGGGTKLTVL
notes: also called Propeller 1 anti-LRP6 Fab MOR06706
As to B2, in the assay with human LRP6 [1], the EC50 turned out to be 0.14 nM. This counts as sub-nanomolar.

B3: MOR08545 Fab (Fab, V domains shown)
VH: QVQLVESGGGLVQPGGSLRLSCAASGFTFSVNGMHWVRQAPGKGLEWVSVIDGMGHTYYADSVKGRFTISRDNSKNTLYLQMNSLRAEDTAVYYCARYDYIKYGAFDPWGQGTLVTVSS
VL: DIELTQPPSVSVAPGQTARISCSGDNIGSKYVHWYQQKPGQAPVLVIYGDSNRPSGIPERFSGSNSGNTATLTISGTQAEDEADYYCTRTSTPISGVFGGGTKLTVLG
notes: also called Propeller 1 anti-LRP6 Fab MOR08545
For the molecule B3, the EC50 in the assay with mouse LRP6 is 0.06 nM; with human LRP6 [1] it was 0.09 nM.

B4: scFv08168-D4 (scFv, not shown: small tags and cut ends)
scFv: QVQLVESGGGLVQPGGSLRLSCAASGFTFSDYVMNWVRQAPGKGLEWVSSISWSGVNTHYADSVKGRFTISRDNSKNTLYLQMNSLRAEDTAVYYCARLGATANNIRYKFMDVWGQGTLVTVSSGGGGSGGGGSGGGGSDIELTQPPSVSVAPGQTARISCSGDSLRNKVYWYQQKPGQAPVLVIYKNNRPSGIPERFSGSNSGNTATLTISGTQAEDEADYYCQSYDGQKSLVFGGGTKLTVL
Regarding B4, the “IC50 by STF assay for Wnt1 inhibition” value with human LRP6 [2] was determined as 5.56 nM.

B5: scFv08168-D2 (scFv, not shown: small tags and cut ends)
scFv: QVQLVESGGGLVQPGGSLRLSCAASGFTFSDYVFNWVRQAPGKGLEWVAGISWSGVNTHYADSVKGRFTISRDNSKNTLYLQMNSLRAEDTAVYYCARLGATANNIRYKFMDVWGQGTLVTVSSGGGGSGGGGSGGGGSDIELTQPPSVSVAPGQTARISCSGDSLRNKVYWYQQKPGQAPVLVIYKNNRPSGIPERFSGSNSGNTATLTISGTQAEDEADYYCQSYDGQKSLVFGGGTKLTVL
As for B5, the “IC50 by STF assay for Wnt1 inhibition” value with human LRP6 [2] was 2.59 nM.

B6: scFv08168 VH:I34M (scFv, V domains shown)
VH: QVQLVESGGGLVQPGGSLRLSCAASGFTFSDYVMNWVRQAPGKGLEWVSGISWSGVNTHYADSVKGRFTISRDNSKNTLYLQMNSLRAEDTAVYYCARLGATANNIRYKFMDVWGQGTLVTVSS
VL: DIELTQPPSVSVAPGQTARISCSGDSLRNKVYWYQQKPGQAPVLVIYKNNRPSGIPERFSGSNSGNTATLTISGTQAEDEADYYCQSYDGQKSLVFGGGTKLTVL
notes: Point mutant of scFv08168 (His tag)
For the molecule B6, the concentration giving a half-maximal response (EC50) in assay [3] was found to be 0.98 nM.

B7: MOR08168 Fab (Fab, V domains shown)
VH: QVQLVESGGGLVQPGGSLRLSCAASGFTFSDYVINWVRQAPGKGLEWVSGISWSGVNTHYADSVKGRFTISRDNSKNTLYLQMNSLRAEDTAVYYCARLGATANNIRYKFMDVWGQGTLVTVSS
VL: DIELTQPPSVSVAPGQTARISCSGDSLRNKVYWYQQKPGQAPVLVIYKNNRPSGIPERFSGSNSGNTATLTISGTQAEDEADYYCQSYDGQKSLVFGGGTKLTVL
notes: HuCAL Fab expressed in E. coli from pMORPH X9/X11 FH vectors and purified by Ni-NTA; also called Propeller 1 anti-LRP6 Fab MOR08168
B7: the EC50 in the assay with mouse LRP6 is 0.12 nM; with human LRP6 [1] it was 0.28 nM.

B8: scFv MOR06475 (scFv, V domains shown)
VH: QVQLKESGPALVKPTQTLTLTCTFSGFSLSNRGGGVGWIRQPPGKALEWLAWIDWDDDKSYSTSLKTRLTISKDTSKNQVVLTMTNMDPVDTATYYCARMHLPLVFDSWGQGTLVTVSS
VL: DIVLTQSPATLSLSPGERATLSCRASQFIGSRYLAWYQQKPGQAPRLLIYGASNRATGVPARFSGSGSGTDFTLTISSLEPEDFATYYCQQYYDYPQTFGQGTKVEIK
Consider B8, for which, in the assay with human LRP6 [2], the “IC50 by STF assay for Wnt3a inhibition” value turned out to be 1.48 nM.

B9: MOR08193 Fab (Fab, V domains shown)
VH: QVQLKESGPALVKPTQTLTLTCTFSGFSLSNRGGGVGWIRQPPGKALEWLAWIDWDDDKSYSTSLKTRLTISKDTSKNQVVLTMTNMDPVDTATYYCARMHLPLVFDSWGQGTLVTVSS
VL: DIVLTQSPATLSLSPGERATLSCRASQFIGSRYLAWYQQKPGQAPRLLIYGASNRATGVPARFSGSGSGTDFTLTISSLEPEDFAVYYCQQYWSIPITFGQGTKVEIKR
notes: also called Propeller 3 anti-LRP6 Fab MOR08193
As to B9, the EC50 with mouse LRP6 stood at 0.08 nM; with human LRP6 [1] it was 0.36 nM.
